The test deals with ScNtx-NT647, fluorescently labeled variant of ScNtx. In words: MST; 5 nM ScNtx-NT647 held constant, Torpedo nAChR in asolectin-MSP1E3D1 nanodiscs titrated 0.5 nM to 1 μM; PBS pH 7.4, 0.05% Tween, 20 °C, high MST power, 4 % excitation power, triplicate; apparent affinity.

As for “Torpedo muscle-type nicotinic acetylcholine receptor, native, purified, reconstituted in asolectin-MSP1E3D1 lipidic nanodiscs (from UniProt P02710 25-461; P02714 18-506; P02718 22-522; P02712 25-493) (complex)”, the Kd is 0.028 µM.

The values are drawn from publication PMC9352773.
